We go through 47 molecules from patent US7067619 (LA JOLLA CANCER RESEARCH FOUNDATION, dated 2006).

Ends that are not written are not given here.

B1: CDCRGDCLC phage (peptide)
peptide: CDCRGDCLC
modifications: not fully specified (bridges); also: two disulfide bonds, pairing not given here
notes: on fuse 5 phage, fused to pIII
B2: CLCRGDCIC phage (peptide)
peptide: CLCRGDCIC
modifications: not fully specified (bridges); also: two disulfide bonds, pairing not given here
notes: as for B1

T1 sequence (P08648 42-1049, chain 1 of 2): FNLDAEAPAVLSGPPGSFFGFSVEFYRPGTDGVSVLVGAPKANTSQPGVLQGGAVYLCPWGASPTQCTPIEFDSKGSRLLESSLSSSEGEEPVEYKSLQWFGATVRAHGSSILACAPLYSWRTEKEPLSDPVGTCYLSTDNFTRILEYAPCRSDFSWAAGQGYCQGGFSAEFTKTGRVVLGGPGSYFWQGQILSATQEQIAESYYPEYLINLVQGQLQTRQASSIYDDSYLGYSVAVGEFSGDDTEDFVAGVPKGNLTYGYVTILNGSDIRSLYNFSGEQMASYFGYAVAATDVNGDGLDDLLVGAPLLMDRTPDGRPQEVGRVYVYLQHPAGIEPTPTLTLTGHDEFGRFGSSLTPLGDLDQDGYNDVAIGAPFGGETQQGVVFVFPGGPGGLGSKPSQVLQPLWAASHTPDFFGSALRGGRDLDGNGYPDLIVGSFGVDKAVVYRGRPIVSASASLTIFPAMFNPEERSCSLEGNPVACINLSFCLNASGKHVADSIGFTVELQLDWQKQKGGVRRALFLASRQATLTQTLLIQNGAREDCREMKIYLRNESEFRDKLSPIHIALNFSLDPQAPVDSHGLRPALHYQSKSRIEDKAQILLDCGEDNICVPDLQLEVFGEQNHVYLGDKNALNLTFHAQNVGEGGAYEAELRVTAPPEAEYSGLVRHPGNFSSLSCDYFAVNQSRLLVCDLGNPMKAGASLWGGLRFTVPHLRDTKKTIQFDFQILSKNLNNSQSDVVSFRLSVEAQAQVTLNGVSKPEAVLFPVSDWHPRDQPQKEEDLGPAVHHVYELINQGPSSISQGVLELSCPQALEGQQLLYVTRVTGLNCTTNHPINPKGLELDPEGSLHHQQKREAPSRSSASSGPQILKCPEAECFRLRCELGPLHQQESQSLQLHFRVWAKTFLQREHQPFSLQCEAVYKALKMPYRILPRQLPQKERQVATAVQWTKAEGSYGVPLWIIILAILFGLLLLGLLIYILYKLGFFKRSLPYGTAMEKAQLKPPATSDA
T1 sequence (P05556 21-798, chain 2 of 2): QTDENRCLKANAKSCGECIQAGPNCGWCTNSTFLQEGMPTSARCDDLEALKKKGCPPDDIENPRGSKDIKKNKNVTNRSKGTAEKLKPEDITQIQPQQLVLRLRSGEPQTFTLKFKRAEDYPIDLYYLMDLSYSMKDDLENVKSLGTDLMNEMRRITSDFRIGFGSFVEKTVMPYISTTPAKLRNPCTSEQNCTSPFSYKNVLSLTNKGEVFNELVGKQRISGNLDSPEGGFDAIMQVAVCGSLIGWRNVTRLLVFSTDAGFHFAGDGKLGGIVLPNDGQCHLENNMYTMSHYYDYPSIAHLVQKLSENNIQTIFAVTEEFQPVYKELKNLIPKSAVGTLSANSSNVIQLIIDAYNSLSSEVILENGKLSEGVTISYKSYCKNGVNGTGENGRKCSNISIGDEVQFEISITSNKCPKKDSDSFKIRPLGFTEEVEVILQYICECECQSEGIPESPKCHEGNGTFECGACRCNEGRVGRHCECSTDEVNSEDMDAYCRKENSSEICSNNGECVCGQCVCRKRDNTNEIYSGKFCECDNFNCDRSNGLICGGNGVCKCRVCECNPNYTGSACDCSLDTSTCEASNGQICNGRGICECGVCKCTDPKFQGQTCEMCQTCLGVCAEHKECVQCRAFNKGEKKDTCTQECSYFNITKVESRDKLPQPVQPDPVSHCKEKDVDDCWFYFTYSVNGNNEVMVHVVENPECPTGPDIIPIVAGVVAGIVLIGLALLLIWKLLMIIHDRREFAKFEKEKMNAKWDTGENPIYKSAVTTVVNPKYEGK

The first test concerns the target T1, α5β1 integrin isolated from human placental extract (human, UniProt P08648 42-1049; P05556 21-798).
T1 construct: coated on plastic wells or captured by anti-α5 antibody; also called fibronectin receptor
The test can be described thus: phage panning on coated integrin. The protocol:
(§1) In the first panning, the integrins were coated at 5 µg per well, and the library pool was incubated for 4 hours at 25° C. in TBS buffer containing 1% bovine serum albumin and 1 mM MnCl_2 (α_5β_1, α_vβ_3) 1 mM MgCl_2 ($\alphaIIb\beta_3$) or 1 mM CaCl_2 (α_vβ_5).
As for CRGDGAWC (on fuse 5 phage, fused to pIII) [CRGDGAWC phage], the binding result is given as “binds”.

For CRGDGLDC (on fuse 5 phage, fused to pIII) [CRGDGLDC phage], the binding result was “binds”.

Regarding CRGDGMWC (on fuse 5 phage, fused to pIII) [CRGDGMWC phage], the binding result is “binds”.

CRGDGLWC (on fuse 5 phage, fused to pIII) [CRGDGLWC phage]: the binding result was “binds”.

Consider CRGDGWWC (on fuse 5 phage, fused to pIII) [CRGDGWWC phage], for which the binding result was “binds”.

Regarding CRGDGLMC (on fuse 5 phage, fused to pIII) [CRGDGLMC phage], the binding result is on record as “binds”.

As for CRGDGWIC (on fuse 5 phage, fused to pIII) [CRGDGWIC phage], the binding result is “binds”.

Turning to CRGDGLIC (on fuse 5 phage, fused to pIII) [CRGDGLIC phage], the binding result is recorded as “binds”.

Consider CRGDAAWC (on fuse 5 phage, fused to pIII) [CRGDAAWC phage], for which the binding result is recorded as “binds”.

Regarding CRGDGLLC (on fuse 5 phage, fused to pIII) [CRGDGLLC phage], the binding result is “binds”.

For CRGDGMLC (on fuse 5 phage, fused to pIII) [CRGDGMLC phage], the binding result is on record as “binds”.

As to CRGDGWMC (on fuse 5 phage, fused to pIII) [CRGDGWMC phage], the binding result is reported as “binds”.

With CRGDGFLC (on fuse 5 phage, fused to pIII) [CRGDGFLC phage], the binding result was “binds”.

Consider CRGDGAFC (on fuse 5 phage, fused to pIII) [CRGDGAFC phage], for which the binding result was “binds”.

Turning to CRGDGWLC (on fuse 5 phage, fused to pIII) [CRGDGWLC phage], the binding result is “binds”.

For the molecule CRGDAAHC (on fuse 5 phage, fused to pIII) [CRGDAAHC phage], the binding result is given as “binds”.

For the next test, the target named is αvβ5 integrin isolated from human placental extract (human, UniProt P06756 31-1048; P18084 24-799). The test can be described thus: phage panning on coated integrin. The protocol: as §1
αvβ5 integrin isolated from human placental extract, sequence (P06756 31-1048, chain 1 of 2): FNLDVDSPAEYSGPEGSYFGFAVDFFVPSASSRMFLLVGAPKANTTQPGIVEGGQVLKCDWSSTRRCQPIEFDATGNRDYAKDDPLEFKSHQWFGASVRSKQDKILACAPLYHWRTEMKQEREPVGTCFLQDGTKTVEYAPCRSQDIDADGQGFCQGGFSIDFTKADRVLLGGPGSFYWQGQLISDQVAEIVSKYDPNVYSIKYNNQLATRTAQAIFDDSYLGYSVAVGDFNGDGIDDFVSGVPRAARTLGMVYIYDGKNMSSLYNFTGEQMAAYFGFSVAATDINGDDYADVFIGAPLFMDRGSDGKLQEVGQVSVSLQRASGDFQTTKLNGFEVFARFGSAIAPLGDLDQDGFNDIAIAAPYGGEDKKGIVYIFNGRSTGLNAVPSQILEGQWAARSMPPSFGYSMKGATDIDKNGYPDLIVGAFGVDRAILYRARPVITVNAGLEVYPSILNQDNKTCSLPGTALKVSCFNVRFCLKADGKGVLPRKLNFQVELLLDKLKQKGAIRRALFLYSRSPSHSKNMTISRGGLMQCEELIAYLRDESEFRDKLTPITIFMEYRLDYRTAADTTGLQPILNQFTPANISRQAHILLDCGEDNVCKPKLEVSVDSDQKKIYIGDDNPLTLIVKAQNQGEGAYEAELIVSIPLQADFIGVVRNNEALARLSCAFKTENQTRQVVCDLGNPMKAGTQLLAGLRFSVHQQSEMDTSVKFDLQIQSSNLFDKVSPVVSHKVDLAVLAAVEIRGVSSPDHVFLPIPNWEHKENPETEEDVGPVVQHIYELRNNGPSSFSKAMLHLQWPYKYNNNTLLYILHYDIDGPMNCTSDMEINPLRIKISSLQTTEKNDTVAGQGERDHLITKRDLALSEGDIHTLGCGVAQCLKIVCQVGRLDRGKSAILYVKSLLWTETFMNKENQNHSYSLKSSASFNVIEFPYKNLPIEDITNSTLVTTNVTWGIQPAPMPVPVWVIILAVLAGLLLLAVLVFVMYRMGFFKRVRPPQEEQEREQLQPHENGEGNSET
αvβ5 integrin isolated from human placental extract, sequence (P18084 24-799, chain 2 of 2): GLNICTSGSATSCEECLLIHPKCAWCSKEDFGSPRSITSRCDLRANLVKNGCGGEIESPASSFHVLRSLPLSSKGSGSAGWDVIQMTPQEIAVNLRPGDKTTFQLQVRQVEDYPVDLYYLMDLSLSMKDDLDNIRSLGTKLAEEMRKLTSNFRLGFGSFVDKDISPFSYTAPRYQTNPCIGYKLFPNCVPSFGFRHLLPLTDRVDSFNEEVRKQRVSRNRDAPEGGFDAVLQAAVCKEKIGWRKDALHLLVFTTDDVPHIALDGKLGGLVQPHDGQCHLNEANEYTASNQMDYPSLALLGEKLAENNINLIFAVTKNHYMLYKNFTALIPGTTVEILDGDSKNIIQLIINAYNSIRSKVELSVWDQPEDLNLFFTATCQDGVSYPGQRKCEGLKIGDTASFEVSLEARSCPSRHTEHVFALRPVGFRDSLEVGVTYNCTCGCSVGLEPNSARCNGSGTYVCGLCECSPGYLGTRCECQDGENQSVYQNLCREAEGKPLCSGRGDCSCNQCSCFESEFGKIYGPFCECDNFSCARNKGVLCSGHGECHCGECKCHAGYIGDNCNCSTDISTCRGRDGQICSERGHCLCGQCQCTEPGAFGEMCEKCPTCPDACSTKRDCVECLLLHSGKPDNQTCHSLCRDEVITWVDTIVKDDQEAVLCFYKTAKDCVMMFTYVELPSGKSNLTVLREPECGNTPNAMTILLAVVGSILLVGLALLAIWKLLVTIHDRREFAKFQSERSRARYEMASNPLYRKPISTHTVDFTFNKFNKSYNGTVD
Consider CRGDLPRAWC (on fuse 5 phage, fused to pIII) [CRGDLPRAWC phage], for which the binding result is “binds”.

On to CRGDTPGFLC (on fuse 5 phage, fused to pIII) [CRGDTPGFLC phage], for which the binding result is reported as “binds”.

On to CQVRGDQFAC (on fuse 5 phage, fused to pIII) [CQVRGDQFAC phage], for which the binding result is given as “binds”.

Regarding B1, the binding result is “binds”.

As for CLHPNVRSC (on fuse 5 phage, fused to pIII) [CLHPNVRSC phage], the binding result is listed as “binds”.

As for CQSRGDDFSC (on fuse 5 phage, fused to pIII) [CQSRGDDFSC phage], the binding result is given as “binds”.

On to CEAKFQLHWV (on fuse 5 phage, fused to pIII) [CEAKFQLHWV phage], for which the binding result is “binds”.

With CIRRGDTFGC (on fuse 5 phage, fused to pIII) [CIRRGDTFGC phage], the binding result is reported as “binds”.

On to CGSPLKSIKC (on fuse 5 phage, fused to pIII) [CGSPLKSIKC phage], for which the binding result was “binds”.

On to CYRGDADFWC (on fuse 5 phage, fused to pIII) [CYRGDADFWC phage], for which the binding result is recorded as “binds”.

As to CGQRSSARAS (on fuse 5 phage, fused to pIII) [CGQRSSARAS phage], the binding result is recorded as “binds”.

Turning to CRKQVMACTA (on fuse 5 phage, fused to pIII) [CRKQVMACTA phage], the binding result is listed as “binds”.

Take CGRRGDVPRC (on fuse 5 phage, fused to pIII) [CGRRGDVPRC phage]: the binding result is recorded as “binds”.

As to CRGDVPAVGC (on fuse 5 phage, fused to pIII) [CRGDVPAVGC phage], the binding result was “binds”.

In the case of CIEIQHGKAC (on fuse 5 phage, fused to pIII) [CIEIQHGKAC phage], the binding result is “binds”.

For CGPRERFLSC (on fuse 5 phage, fused to pIII) [CGPRERFLSC phage], the binding result is listed as “binds”.

Regarding CTQRGDNFFC (on fuse 5 phage, fused to pIII) [CTQRGDNFFC phage], the binding result is reported as “binds”.

CIRQRIYPWC (on fuse 5 phage, fused to pIII) [CIRQRIYPWC phage]: the binding result is reported as “binds”.

For B2, the binding result was “binds”.

With CDSVLRVFC (on fuse 5 phage, fused to pIII) [CDSVLRVFC phage], the binding result was “binds”.

Turning to CTRKRAVGAA (on fuse 5 phage, fused to pIII) [CTRKRAVGAA phage], the binding result is “binds”.

As for CVSRGDTPKC (on fuse 5 phage, fused to pIII) [CVSRGDTPKC phage], the binding result is recorded as “binds”.

As for CPRRGDTFSC (on fuse 5 phage, fused to pIII) [CPRRGDTFSC phage], the binding result is “binds”.

Consider CVTRGDSFSC (on fuse 5 phage, fused to pIII) [CVTRGDSFSC phage], for which the binding result is reported as “binds”.

As for CAHRGDTPQC (on fuse 5 phage, fused to pIII) [CAHRGDTPQC phage], the binding result is on record as “binds”.

As to CSQKRGDTWC (on fuse 5 phage, fused to pIII) [CSQKRGDTWC phage], the binding result is “binds”.

Regarding CQGRGDTFYC (on fuse 5 phage, fused to pIII) [CQGRGDTFYC phage], the binding result is recorded as “binds”.

With CVGKELHKRV (on fuse 5 phage, fused to pIII) [CVGKELHKRV phage], the binding result is listed as “binds”.

In the case of CPDKRGDTYC (on fuse 5 phage, fused to pIII) [CPDKRGDTYC phage], the binding result is “binds”.

In the case of CAPRGDHFAC (on fuse 5 phage, fused to pIII) [CAPRGDHFAC phage], the binding result is listed as “binds”.

In the case of CRGDCCQSC (on fuse 5 phage, fused to pIII) [CRGDCCQSC phage], the binding result is recorded as “binds”.
